Laboratory results from the supplement of paper PMC10126150.
± gives the standard deviation of the averaged measurements.

Test system: ATP
Test: switch fluorescence ratio, 500 uM ATP over buffer (Cy3 cluster intensity, sum of 5 cycles each) (fold (ratio)); higher = stronger signal-on switching upon ATP binding; sequences stand for … in TCGTCGGCAGCGTCAGATGTGTATAAGAGACAGTTTTTTTTTTTTTTTTTTTTTTTTT…TC
Details: aptamer strand: ATP DNA aptamer (quencher-CACCTGGGGGAGTATTGCGGAGGAAGG + anchor), 100 nM annealed; ATP concentration: 500 uM
Summary of the method: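 Cy3-labelled switching-strand clusters on a modified Illumina MiSeq flow-cell were annealed to 100 nM quencher-labelled ATP aptamer and imaged first in selection buffer, then after 15 min with 500 uM ATP at 22 °C. NaOH stripping and re-annealing separated each of five buffer/ATP cycles, and clusters outside 100-1000 RFU were excluded. The fluorescence ratio sums target-cycle Cy3 intensity over buffer-cycle Cy3 intensity per cluster and averages it per switch-domain sequence.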
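Also: ATP exposure 15 min at 22 °C before imaging.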

Sequence | switch fluorescence ratio
CGTTTGGACG | 0.989 ± 0.079
CGTTTGGGGG | 0.987 ± 0.021
CGTTTGGTCT | 1 ± 0.051
CGTTTGGTGG | 1.01 ± 0.032
CGTTTGTGAG | 1 ± 0.0092
CGTTTGTGGG | 0.984 ± 0.034
CGTTTTAGAG | 1.01 ± 0.016
CGTTTTCCGA | 1.01 ± 0.032
CGTTTTCGGA | 0.982 ± 0.032
CGTTTTGATA | 1.01 ± 0.012
CGTTTTGATT | 0.997 ± 0.013
CGTTTTGGGC | 1.04 ± 0.033
CGTTTTGGGG | 0.999 ± 0.032
CGTTTTTCCG | 1.08 ± 0.032
CGTTTTTGGC | 0.992 ± 0.074
CTAAAAGGGA | 0.95 ± 0.033
CTAAAAGTGT | 0.989 ± 0.034
CTAAACAGAA | 0.9996 ± 0.0027
CTAAACGGTG | 1.03 ± 0.012
CTAAAGACTC | 1.19 ± 0.046
CTAAAGGGGA | 1.08 ± 0.12
CTAAAGGGGG | 0.998 ± 0.029

Sequence | switch fluorescence ratio
CTAAATAGGG | 1.01 ± 0.049
CTAAATCGGT | 0.987 ± 0.061
CTAAATGGGA | 1.01 ± 0.029
CTAAATTAGT | 0.995 ± 0.042
CTAAATTGCC | 0.9991 ± 0.0056
CTAACATTTT | 1.01 ± 0.018
CTAACCAGCC | 1.6 ± 0.13
CTAACCGGTA | 1.006 ± 0.0063
CTAACTGGTG | 1.2 ± 0.055
CTAAGAGGAC | 0.9921 ± 0.0033
CTAAGAGGCG | 0.988 ± 0.024
CTAAGCGGGA | 1.05 ± 0.016
CTAAGGATGC | 1.03 ± 0.021
CTAAGGCGGG | 1.013 ± 0.0072
CTAAGGGGAT | 1.09 ± 0.15
CTAAGTTCCG | 1.015 ± 0.01
CTAATATTAT | 1.01 ± 0.027
CTAATCGGTT | 0.97 ± 0.029
CTAATTAAGT | 0.973 ± 0.028
CTAATTATGG | 1.04 ± 0.014
CTAATTGAGT | 1.01 ± 0.014
CTAATTTTTT | 1.01 ± 0.025

Sequence | switch fluorescence ratio
CTACCTCCGA | 3.16 ± 0.29
CTACTATAGG | 0.9889 ± 0.0064
CTAGAAAGC | 1.02 ± 0.02
CTAGCAACGC | 1.08 ± 0.028
CTAGCCAATT | 1.02 ± 0.016
CTAGCCCAGC | 1.02 ± 0.026
CTAGCCGGGA | 1.017 ± 0.009
CTAGCCTCTT | 0.995 ± 0.027
CTAGCCTGCT | 0.994 ± 0.038
CTAGGACAGC | 0.994 ± 0.012
CTAGGCAGTT | 1.01 ± 0.012
CTAGGCTGTA | 1 ± 0.021
CTAGGGAGGT | 0.9701 ± 0.002
CTAGGGCTTC | 0.979 ± 0.02
CTAGGGGCGT | 0.979 ± 0.019
CTAGGGGGGC | 1 ± 0.093
CTAGGTGGAC | 1.01 ± 0.012
CTAGTAGATC | 1.04 ± 0.014
CTAGTAGTGT | 1.01 ± 0.022
CTAGTCGCCG | 1.003 ± 0.0097
CTAGTCTAAT | 1.01 ± 0.039
CTAGTGCTCG | 0.971 ± 0.022

Sequence | switch fluorescence ratio
CTAGTTAAGC | 0.9892 ± 0.0035
CTAGTTCTTA | 1.05 ± 0.065
CTAGTTGGTT | 0.971 ± 0.028
CTATAAAAGT | 0.9983 ± 0.0076
CTATAAGGG | 0.985 ± 0.031
CTATAGGAAA | 1.03 ± 0.026
CTATAGGTAA | 0.996 ± 0.019
CTATAGTAGG | 0.9849 ± 0.0029
CTATAGTCAA | 1.38 ± 0.026
CTATATGAAG | 0.9802 ± 0.0067
CTATCCTCTT | 0.972 ± 0.01
CTATCGGGGT | 0.993 ± 0.015
CTATCGGTGA | 0.9767 ± 0.0019
CTATGAATTT | 0.995 ± 0.011
CTATGACAGC | 1.01 ± 0.016
CTATGATCTG | 0.989 ± 0.065
CTATGGCCGG | 0.969 ± 0.024
CTATGGCGCA | 1.03 ± 0.067
CTATGGGGGG | 0.993 ± 0.035
